Test results published in patent US20250313605A1.
*1 amine or outer side, *2 acyl side, *3 side chain or, on linkers, in order; H or OH if unused. Where no end group is shown, it is not given here. Side-chain parts run from the residue outwards. [ ]: non-standard residue; d: D form. The star is where a group is joined. C20 diacid = O=C(O)CCCCCCCCCCCCCCCCCCC(=O)*; γGlu = O=C(O)[C@H](CCC(=O)[*:2])N[*:1]; αMeL = CC(C)C[C@](C)(N)C(=O)O; αMeK = C[C@](N)(CCCCN)C(=O)O; AEEA = NCCOCCOCC(=O)O; Aib = CC(C)(N)C(=O)O

Tests used:
[1] = target: T1, human GIP receptor (human), P48546; assay: radioligand competition SPA, HEK293 membranes
T1 chain: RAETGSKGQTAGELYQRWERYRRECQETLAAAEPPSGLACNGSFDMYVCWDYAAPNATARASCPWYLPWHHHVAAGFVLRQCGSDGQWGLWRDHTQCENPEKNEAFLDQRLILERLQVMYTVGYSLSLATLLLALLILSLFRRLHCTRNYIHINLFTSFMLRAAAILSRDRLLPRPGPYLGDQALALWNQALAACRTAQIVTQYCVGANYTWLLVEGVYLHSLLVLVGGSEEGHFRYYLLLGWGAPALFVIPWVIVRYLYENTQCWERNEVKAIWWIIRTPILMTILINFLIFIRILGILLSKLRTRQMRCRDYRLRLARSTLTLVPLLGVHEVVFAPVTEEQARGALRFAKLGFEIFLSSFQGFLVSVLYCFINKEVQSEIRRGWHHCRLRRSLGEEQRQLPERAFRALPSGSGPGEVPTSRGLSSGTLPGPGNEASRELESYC

[2] = target: T2, human GLP-1 receptor (human), P43220; assay: radioligand competition SPA, HEK293 membranes
T2 chain: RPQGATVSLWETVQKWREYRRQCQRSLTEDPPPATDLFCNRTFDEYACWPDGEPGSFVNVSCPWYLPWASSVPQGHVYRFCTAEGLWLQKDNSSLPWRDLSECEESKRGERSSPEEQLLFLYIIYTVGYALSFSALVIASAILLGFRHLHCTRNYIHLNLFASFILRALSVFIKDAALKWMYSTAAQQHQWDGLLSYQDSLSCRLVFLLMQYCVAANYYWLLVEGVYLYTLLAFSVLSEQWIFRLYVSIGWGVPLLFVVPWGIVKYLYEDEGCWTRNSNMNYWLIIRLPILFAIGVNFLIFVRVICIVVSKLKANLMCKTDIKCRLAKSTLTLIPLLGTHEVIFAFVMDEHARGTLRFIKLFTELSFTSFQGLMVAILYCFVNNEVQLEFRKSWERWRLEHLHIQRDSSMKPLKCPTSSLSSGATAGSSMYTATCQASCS

[3] = target: human glucagon receptor (human), P47871; assay: radioligand competition SPA, HEK293 membranes
Sequence of human glucagon receptor (human), P47871 (P47871 26-477): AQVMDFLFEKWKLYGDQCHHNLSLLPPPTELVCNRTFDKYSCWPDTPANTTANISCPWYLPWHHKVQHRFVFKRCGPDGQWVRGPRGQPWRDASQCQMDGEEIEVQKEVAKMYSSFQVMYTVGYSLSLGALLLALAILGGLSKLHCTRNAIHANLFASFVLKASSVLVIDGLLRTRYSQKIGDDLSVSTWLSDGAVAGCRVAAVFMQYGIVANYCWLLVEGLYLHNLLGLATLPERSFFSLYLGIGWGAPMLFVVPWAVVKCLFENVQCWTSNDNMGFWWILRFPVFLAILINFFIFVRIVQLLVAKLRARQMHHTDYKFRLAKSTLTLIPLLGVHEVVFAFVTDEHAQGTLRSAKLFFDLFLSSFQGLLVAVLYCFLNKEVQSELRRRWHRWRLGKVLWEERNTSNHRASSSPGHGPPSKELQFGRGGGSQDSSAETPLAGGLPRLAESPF

[4] = target: T1, human GIP receptor (human), P48546; assay: cell-based or functional assay
[5] = target: T2, human GLP-1 receptor (human), P43220; assay: cell-based or functional assay
[6] = target: human glucagon receptor (human), P47871; assay: cell-based or functional assay

B1: Example 2 (peptide)
peptide: Y[Aib]QGTFTSDYSI[αMeL]LDKK([AEEA-γGlu-C20 diacid])AQHAFIEYLLA[Aib]GPSSGAPPPS-NH2
modifications: N-terminus assumed
SMILES: CC[C@H](C)[C@H](NC(=O)[C@H](Cc1ccccc1)NC(=O)[C@H](C)NC(=O)[C@H](Cc1c[nH]cn1)NC(=O)[C@H](CCC(N)=O)NC(=O)[C@H](C)NC(=O)[C@H](CCCCNC(=O)COCCOCCNC(=O)CC[C@H](NC(=O)CCCCCCCCCCCCCCCCCCC(=O)O)C(=O)O)NC(=O)[C@H](CCCCN)NC(=O)[C@H](CC(=O)O)NC(=O)[C@H](CC(C)C)NC(=O)[C@](C)(CC(C)C)NC(=O)[C@@H](NC(=O)[C@H](CO)NC(=O)[C@H](Cc1ccc(O)cc1)NC(=O)[C@H](CC(=O)O)NC(=O)[C@H](CO)NC(=O)[C@@H](NC(=O)[C@H](Cc1ccccc1)NC(=O)[C@@H](NC(=O)CNC(=O)[C@H](CCC(N)=O)NC(=O)C(C)(C)NC(=O)[C@@H](N)Cc1ccc(O)cc1)[C@@H](C)O)[C@@H](C)O)[C@@H](C)CC)C(=O)N[C@@H](CCC(=O)O)C(=O)N[C@@H](Cc1ccc(O)cc1)C(=O)N[C@@H](CC(C)C)C(=O)N[C@@H](CC(C)C)C(=O)N[C@@H](C)C(=O)NC(C)(C)C(=O)NCC(=O)N1CCC[C@H]1C(=O)N[C@@H](CO)C(=O)N[C@@H](CO)C(=O)NCC(=O)N[C@@H](C)C(=O)N1CCC[C@H]1C(=O)N1CCC[C@H]1C(=O)N1CCC[C@H]1C(=O)N[C@@H](CO)C(N)=O
- Ki [1]: 0.0665 nM
- Ki [2]: 4.5 nM
- Ki [3]: 3.71 nM
- cAMP EC50 (0.1% casein) [4]: 0.0474 nM
- cAMP EC50 (FBS and BSA present) [4]: 2.19 nM
- cAMP EC50 (0.1% casein) [5]: 0.207 nM
- cAMP EC50 (FBS and BSA present) [5]: 12.8 nM
- cAMP EC50 (0.1% casein) [6]: 0.0553 nM
- cAMP EC50 (FBS and BSA present) [6]: 2.66 nM

B2: Example 1 (peptide)
peptide: H-Y[Aib]QGTFTSDYSI[αMeL]LDKK([AEEA-AEEA-γGlu-C20 diacid])AQ[αMeK]AFIEYLLA[Aib]GPSSGAPPPS-NH2
SMILES: CC[C@H](C)[C@H](NC(=O)[C@H](Cc1ccccc1)NC(=O)[C@H](C)NC(=O)[C@](C)(CCCCN)NC(=O)[C@H](CCC(N)=O)NC(=O)[C@H](C)NC(=O)[C@H](CCCCNC(=O)COCCOCCNC(=O)COCCOCCNC(=O)CC[C@H](NC(=O)CCCCCCCCCCCCCCCCCCC(=O)O)C(=O)O)NC(=O)[C@H](CCCCN)NC(=O)[C@H](CC(=O)O)NC(=O)[C@H](CC(C)C)NC(=O)[C@](C)(CC(C)C)NC(=O)[C@@H](NC(=O)[C@H](CO)NC(=O)[C@H](Cc1ccc(O)cc1)NC(=O)[C@H](CC(=O)O)NC(=O)[C@H](CO)NC(=O)[C@@H](NC(=O)[C@H](Cc1ccccc1)NC(=O)[C@@H](NC(=O)CNC(=O)[C@H](CCC(N)=O)NC(=O)C(C)(C)NC(=O)[C@@H](N)Cc1ccc(O)cc1)[C@@H](C)O)[C@@H](C)O)[C@@H](C)CC)C(=O)N[C@@H](CCC(=O)O)C(=O)N[C@@H](Cc1ccc(O)cc1)C(=O)N[C@@H](CC(C)C)C(=O)N[C@@H](CC(C)C)C(=O)N[C@@H](C)C(=O)NC(C)(C)C(=O)NCC(=O)N1CCC[C@H]1C(=O)N[C@@H](CO)C(=O)N[C@@H](CO)C(=O)NCC(=O)N[C@@H](C)C(=O)N1CCC[C@H]1C(=O)N1CCC[C@H]1C(=O)N1CCC[C@H]1C(=O)N[C@@H](CO)C(N)=O
- Ki [1]: 0.0469 nM
- Ki [2]: 2.64 nM
- Ki [3]: 8.41 nM
- cAMP EC50 (0.1% casein) [4]: 0.0523 nM
- cAMP EC50 (FBS and BSA present) [4]: 0.914 nM
- cAMP EC50 (0.1% casein) [5]: 0.153 nM
- cAMP EC50 (FBS and BSA present) [5]: 7.49 nM
- cAMP EC50 (0.1% casein) [6]: 0.114 nM
- cAMP EC50 (FBS and BSA present) [6]: 2.54 nM
